Assay results as given in paper PMC4119840 (Biochimie, 2014).
Values joined by “and” are separate entries in the source; they are usually repeats but may differ in a detail not shown here. Identical values can stand only once.

Biological target: the molecule itself
Assay: SEC

B1: mouse Serum amyloid A 1.1 (SAA1.1), lipid-free (natural protein)
chain: GFFSFIGEAFQGAGDMWRAYTDMKEAGWKDGDKYFHARGNYDAAQRGPGGVWAAEKISDARESFQEFFGRGHEDTMADQEANRHGRSGKDPNYYRPPGLPAKY
stoichiometry N: 12 and 4
